{"source": "paper PMC10167327", "about": "(2023)", "binders": {"B1": {"name": "Vtc4* (Vtc4(1–487), SPX and TTM domains of Vtc4 without the transmembrane domain) (domain or fragment)", "chain": "not shown", "modifications": "RED-tris-NTA 2nd generation dye on the His tag (MST); RED-NHS 2nd generation dye (MST with TTM2)"}, "B2": {"name": "SPX2 (SPX domain of Vtc2, Vtc2(1–201)) (domain or fragment)", "chain": "MLFGVKLANEVYPPWKGSYINYEGLKKFLKEDSVKDGSNDKKARWDDSDESKFVEELDKELEKVYGFQLKKYNNLMERLSHLEKQTDTEAAIKALDADAFQRVLEELLSESTELDNFKRLNFTGFAKIVKKHDKLYPKYPSVKSLLEVRLKELPSHSEEYSPLLYRISFLYNILRSNFNTASEPLASASKFSSIVSNDIDM"}, "B3": {"name": "SPX2∆α7 (Vtc2(1–182)) (domain or fragment)", "chain": "MLFGVKLANEVYPPWKGSYINYEGLKKFLKEDSVKDGSNDKKARWDDSDESKFVEELDKELEKVYGFQLKKYNNLMERLSHLEKQTDTEAAIKALDADAFQRVLEELLSESTELDNFKRLNFTGFAKIVKKHDKLYPKYPSVKSLLEVRLKELPSHSEEYSPLLYRISFLYNILRSNFNTAS"}}, "key": {"SPX2 S187A": {"target": "SPX2 S187A (S. cerevisiae, UniProt P43585 1-201, serine 187 to alanine)", "assay": "MST"}, "SPX2 S189A": {"target": "SPX2 S189A (S. cerevisiae, UniProt P43585 1-201, serine 189 to alanine)", "assay": "MST"}, "SPX2 N121A": {"target": "SPX2 N121A (S. cerevisiae, UniProt P43585 1-201, N121A)", "assay": "MST"}, "SPX2 K127A": {"target": "SPX2 K127A (S. cerevisiae, UniProt P43585 1-201, K127A)", "assay": "MST"}, "SPX2 Y19F": {"target": "SPX2 Y19F (S. cerevisiae, UniProt P43585 1-201, Y19F)", "assay": "MST"}, "[1]": {"target": "TTM4 (TTM domain of Vtc4, Vtc4(192–487)) (S. cerevisiae, UniProt P47075 192-487, RED-tris-NTA 2nd generation dye on the His tag)", "sequence (P47075 192-487)": "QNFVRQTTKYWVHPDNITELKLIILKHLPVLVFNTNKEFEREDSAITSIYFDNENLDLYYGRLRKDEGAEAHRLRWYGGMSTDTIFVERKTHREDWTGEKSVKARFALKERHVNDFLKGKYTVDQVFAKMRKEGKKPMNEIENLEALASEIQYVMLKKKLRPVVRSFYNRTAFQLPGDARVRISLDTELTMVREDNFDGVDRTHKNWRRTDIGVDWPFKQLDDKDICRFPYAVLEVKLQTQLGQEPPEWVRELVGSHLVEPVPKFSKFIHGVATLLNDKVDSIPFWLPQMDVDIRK", "assay": "MST"}, "[2]": {"target": "B1", "assay": "MST"}, "[3]": {"target": "B1", "assay": "MST; 2.5 mM 5-IP7"}, "[4]": {"target": "B1", "assay": "MST; +100 mM NaCl"}, "[5]": {"target": "B1", "assay": "MST; 2.5 mM IP6"}, "[6]": {"target": "B1", "assay": "MST", "remark": "listed apart in the source"}}}
{"binder": "B1", "values": [{"measurement": "Kd", "setting": "SPX2 S187A", "value": 30, "unit": "µM"}, {"measurement": "Kd", "setting": "SPX2 S189A", "value": 71, "unit": "µM"}, {"measurement": "Kd", "setting": "SPX2 N121A", "value": 118, "unit": "µM"}, {"measurement": "Kd", "setting": "SPX2 K127A", "value": 166, "unit": "µM"}, {"measurement": "Kd", "setting": "SPX2 Y19F", "value": 633, "unit": "µM"}]}
{"binder": "B2", "values": [{"measurement": "Kd", "setting": "[1]", "value": 264, "unit": "µM"}, {"measurement": "Kd", "setting": "[2]", "value": 18.8, "unit": "µM"}, {"measurement": "Kd", "setting": "[3]", "value": "> 1200", "unit": "µM"}, {"measurement": "Kd", "setting": "[4]", "value": 91, "unit": "µM"}, {"measurement": "Kd", "setting": "[5]", "value": "> 300", "unit": "µM"}]}
{"binder": "B3", "values": [{"measurement": "Kd", "setting": "[6]", "value": 500, "unit": "µM"}]}
